Experimental findings from paper PMC9798831 are described below.

Bounds are passed on as bounds.

Series [1] has as its target ShTnsC (Scytonema hofmanni).
Series [2] concerns the target T1, ShTniQ;ShTnsC (Scytonema hofmanni;Scytonema hofmanni, UniProt A0ABR8GRC6;A0ABR8GR16 1-167;1-276, |).
T1 sequence 1: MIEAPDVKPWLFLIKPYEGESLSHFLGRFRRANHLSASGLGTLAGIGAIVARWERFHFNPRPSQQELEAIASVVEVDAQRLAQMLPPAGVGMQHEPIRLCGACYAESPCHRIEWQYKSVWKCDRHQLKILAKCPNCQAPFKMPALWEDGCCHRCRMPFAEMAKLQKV
T1 sequence 2: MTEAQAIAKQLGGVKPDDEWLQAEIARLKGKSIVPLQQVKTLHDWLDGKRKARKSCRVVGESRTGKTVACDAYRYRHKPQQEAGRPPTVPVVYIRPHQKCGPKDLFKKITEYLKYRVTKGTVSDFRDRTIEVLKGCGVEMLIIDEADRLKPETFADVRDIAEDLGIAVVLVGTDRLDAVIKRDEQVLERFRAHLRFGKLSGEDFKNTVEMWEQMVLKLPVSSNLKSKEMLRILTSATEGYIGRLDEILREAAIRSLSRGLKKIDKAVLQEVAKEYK
As to the kind of experiment: cryo-EM.

With “TniQ with alanine substitution of Trp10 (natural protein)”, in series [1], the site-specific transposition activity of ShCAST in E. coli (ddPCR) is greater than 90 % reduction.

Molecule “TniQ with glutamate substitution of Arg155 (natural protein)” displayed a site-specific transposition activity of ShCAST in E. coli (ddPCR) in series [1] of 50 % reduction.

B1: Target_69 duplex (oIQ088/oIQ089) (dsDNA)
DNA 1: GCGAAGGCTTAATCATCGTGGATGAAGCCGACCACCTCGATTACCCCACGCTTGAAGAACTGCGGATCC
DNA 2: GGATCCGCAGTTCTTCAAGCGTGGGGTAATCGAGGTGGTCGGCTTCATCCACGATGATTAAGCCTTCGC
In the case of B1, the binding result in series [2] was “binds”.
